Measurements taken from patent US20110263454A1, “Methods of Identifying Functional Characteristics of Promoters, Transcription Modifying Proteins and Transcription Modulating Agents” (Salk Institute for Biological Studies, priority 2008, published 2011).

Tests used:
hCAR promoter = assay: NHR-promoter luciferase screen, hCAR promoter; format: cell-based, human; conditions: for luciferase activity normalized to lacZ activity and to a control, hCAR: hCAR promoter-luciferase, CV-1 cells, NHR +/- ligand, control = 1.00; for Luc. act., normalized to lacZ / Normalized Luc. act., normalized to control: hCAR promoter, HR/ligand component
How it was run: (§1)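 CV-1 cells were co-transfected with 50 ng NHR (homodimer or NHR/RXR heterodimer), 100 ng promoter-luciferase construct and 50 ng LacZ. Luciferase was normalized to LacZ and to a no-NHR/no-ligand control.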

mGhrelin promoter = assay: NHR-promoter luciferase screen, mGhrelin promoter; format: cell-based, mouse; conditions: for Luc. act., normalized to lacZ / Normalized Luc. act., normalized to control: Table 8, mGhrelin; for Results of assays of transcription factor (+/- ligand) with mGhrelin: Table 6d, luciferase activity relative to control (control = 1.00)
How it was run: as §1

mDio1 promoter = assay: NHR-promoter luciferase screen, mDio1 promoter; format: cell-based, mouse; conditions: for Luc. act., normalized to lacZ / Normalized Luc. act., normalized to control: Dio1, HR component without or with its ligand; for mDio1 promoter reporter activity: transcription factor +/- ligand, control = 1.00
How it was run: as §1

mNPY promoter = assay: NHR-promoter luciferase screen, mNPY promoter; format: cell-based, mouse; conditions: for Results of assays of transcription factor (+/- ligand) with mNPY: Table 6d, luciferase activity relative to control (control = 1.00); for Luc. act., normalized to lacZ / Normalized Luc. act., normalized to control: mNPY promoter, HR component with or without ligand; for Normalized Luc. act., normalized to control: relative to control
How it was run: as §1

mCAR promoter = assay: NHR-promoter luciferase screen, mCAR promoter; format: cell-based, mouse; conditions: for luciferase activity normalized to lacZ activity and to a control, mCAR: mCAR promoter-luciferase, CV-1 cells, NHR +/- ligand, control = 1.00; for Luc. act., normalized to lacZ / Normalized Luc. act., normalized to control: mCAR promoter, HR/ligand component
How it was run: as §1

B1: CTF2: COUP-TF2 (NR2F2), cDNA driver (protein, UniProt P24468 1-414, looked up)
COUP transcription factor 2: MAMVVSTWRDPQDEVPGSQGSQASQAPPVPGPPPGAPHTPQTPGQGGPASTPAQTAAGGQGGPGGPGSDKQQQQQHIECVVCGDKSSGKHYGQFTCEGCKSFFKRSVRRNLSYTCRANRNCPIDQHHRNQCQYCRLKKCLKVGMRREAVQRGRMPPTQPTHGQFALTNGDPLNCHSYLSGYISLLLRAEPYPTSRFGSQCMQPNNIMGIENICELAARMLFSAVEWARNIPFFPDLQITDQVALLRLTWSELFVLNAAQCSMPLHVAPLLAAAGLHASPMSADRVVAFMDHIRIFQEQVEKLKALHVDSAEYSCLKAIVLFTSDACGLSDVAHVESLQEKSQCALEEYVRSQYPNQPTRFGKLLLRLPSLRTVSSSVIEQLFFVRLVGKTPIETLIRDMLLSGSSFNWPYMAIQ
hCAR promoter
  luciferase activity normalized to lacZ activity and to a control, hCAR: 0.23
  Luc. act., normalized to lacZ: 7.2
  Normalized Luc. act., normalized to control: 0.2
mGhrelin promoter
  Luc. act., normalized to lacZ: 173.3
  Normalized Luc. act., normalized to control: 3.3
  Results of assays of transcription factor (+/- ligand) with mGhrelin: 3.32
mDio1 promoter
  Luc. act., normalized to lacZ: 20.9
  Normalized Luc. act., normalized to control: 4.7
  mDio1 promoter reporter activity: 4.69
mNPY promoter
  Results of assays of transcription factor (+/- ligand) with mNPY: 0.65
  Luc. act., normalized to lacZ: 54.7
  Normalized Luc. act., normalized to control: 0.7
mCAR promoter
  luciferase activity normalized to lacZ activity and to a control, mCAR: 0.51
  Luc. act., normalized to lacZ: 19.3
  Normalized Luc. act., normalized to control: 0.5

B2: ERR2: Estrogen Related Receptor β (NR3B2, ERRb), cDNA driver (protein, UniProt O95718 1-433, looked up)
Steroid hormone receptor ERR2: MSSDDRHLGSSCGSFIKTEPSSPSSGIDALSHHSPSGSSDASGGFGLALGTHANGLDSPPMFAGAGLGGTPCRKSYEDCASGIMEDSAIKCEYMLNAIPKRLCLVCGDIASGYHYGVASCEACKAFFKRTIQGNIEYSCPATNECEITKRRRKSCQACRFMKCLKVGMLKEGVRLDRVRGGRQKYKRRLDSESSPYLSLQISPPAKKPLTKIVSYLLVAEPDKLYAMPPPGMPEGDIKALTTLCDLADRELVVIIGWAKHIPGFSSLSLGDQMSLLQSAWMEILILGIVYRSLPYDDKLVYAEDYIMDEEHSRLAGLLELYRAILQLVRRYKKLKVEKEEFVTLKALALANSDSMYIEDLEAVQKLQDLLHEALQDYELSQRHEEPWRTGKLLLTLPLLRQTAAKAVQHFYSVKLQGKVPMHKLFLEMLEAKV
hCAR promoter
  luciferase activity normalized to lacZ activity and to a control, hCAR: 0.77
  Luc. act., normalized to lacZ: 24.2
  Normalized Luc. act., normalized to control: 0.8
mGhrelin promoter
  Luc. act., normalized to lacZ: 365.8
  Normalized Luc. act., normalized to control: 7.0
  Results of assays of transcription factor (+/- ligand) with mGhrelin: 7.00
mGhrelin promoter; mGhrelin promoter-luciferase, NHR +/- ligand, control = 1.0
  luciferase/LacZ, mGhrelin (selected results): 7.0
mDio1 promoter
  Luc. act., normalized to lacZ: 13.6
  Normalized Luc. act., normalized to control: 3.1
  mDio1 promoter reporter activity: 3.05
mNPY promoter
  Results of assays of transcription factor (+/- ligand) with mNPY: 1.02
  Luc. act., normalized to lacZ: 85.4
  Normalized Luc. act., normalized to control: 1.0
mCAR promoter
  luciferase activity normalized to lacZ activity and to a control, mCAR: 0.99
  Luc. act., normalized to lacZ: 37.8
  Normalized Luc. act., normalized to control: 1.0

B3: CTF3: COUP-TF3 (NR2F6), cDNA driver (protein, UniProt P10588 1-404, looked up)
Nuclear receptor subfamily 2 …: MAMVTGGWGGPGGDTNGVDKAGGYPRAAEDDSASPPGAASDAEPGDEERPGLQVDCVVCGDKSSGKHYGVFTCEGCKSFFKRSIRRNLSYTCRSNRDCQIDQHHRNQCQYCRLKKCFRVGMRKEAVQRGRIPHSLPGAVAASSGSPPGSALAAVASGGDLFPGQPVSELIAQLLRAEPYPAAAGRFGAGGGAAGAVLGIDNVCELAARLLFSTVEWARHAPFFPELPVADQVALLRLSWSELFVLNAAQAALPLHTAPLLAAAGLHAAPMAAERAVAFMDQVRAFQEQVDKLGRLQVDSAEYGCLKAIALFTPDACGLSDPAHVESLQEKAQVALTEYVRAQYPSQPQRFGRLLLRLPALRAVPASLISQLFFMRLVGKTPIETLIRDMLLSGSTFNWPYGSGQ
hCAR promoter
  luciferase activity normalized to lacZ activity and to a control, hCAR: 0.14
  Luc. act., normalized to lacZ: 4.5
  Normalized Luc. act., normalized to control: 0.1
mGhrelin promoter
  Luc. act., normalized to lacZ: 68.4
  Normalized Luc. act., normalized to control: 1.3
  Results of assays of transcription factor (+/- ligand) with mGhrelin: 1.31
mDio1 promoter
  Luc. act., normalized to lacZ: 10.0
  Normalized Luc. act., normalized to control: 2.2
  mDio1 promoter reporter activity: 2.23
mNPY promoter
  Results of assays of transcription factor (+/- ligand) with mNPY: 0.48
  Luc. act., normalized to lacZ: 40.6
  Normalized Luc. act., normalized to control: 0.5
mCAR promoter
  luciferase activity normalized to lacZ activity and to a control, mCAR: 0.29
  Luc. act., normalized to lacZ: 11.2
  Normalized Luc. act., normalized to control: 0.3

B4: CTF1: COUP-TF1 (NR2F1), cDNA driver (protein, UniProt P10589 1-423, looked up)
COUP transcription factor 1: MAMVVSSWRDPQDDVAGGNPGGPNPAAQAARGGGGGAGEQQQQAGSGAPHTPQTPGQPGAPATPGTAGDKGQGPPGSGQSQQHIECVVCGDKSSGKHYGQFTCEGCKSFFKRSVRRNLTYTCRANRNCPIDQHHRNQCQYCRLKKCLKVGMRREAVQRGRMPPTQPNPGQYALTNGDPLNGHCYLSGYISLLLRAEPYPTSRYGSQCMQPNNIMGIENICELAARLLFSAVEWARNIPFFPDLQITDQVSLLRLTWSELFVLNAAQCSMPLHVAPLLAAAGLHASPMSADRVVAFMDHIRIFQEQVEKLKALHVDSAEYSCLKAIVLFTSDACGLSDAAHIESLQEKSQCALEEYVRSQYPNQPSRFGKLLLRLPSLRTVSSSVIEQLFFVRLVGKTPIETLIRDMLLSGSSFNWPYMSIQCS
hCAR promoter
  luciferase activity normalized to lacZ activity and to a control, hCAR: 0.14
  Luc. act., normalized to lacZ: 4.5
  Normalized Luc. act., normalized to control: 0.1
mGhrelin promoter
  Luc. act., normalized to lacZ: 113.8
  Normalized Luc. act., normalized to control: 2.2
  Results of assays of transcription factor (+/- ligand) with mGhrelin: 2.18
mDio1 promoter
  Luc. act., normalized to lacZ: 17.3
  Normalized Luc. act., normalized to control: 3.9
  mDio1 promoter reporter activity: 3.89
mNPY promoter
  Results of assays of transcription factor (+/- ligand) with mNPY: 0.47
  Luc. act., normalized to lacZ: 39.2
  Normalized Luc. act., normalized to control: 0.5
mCAR promoter
  luciferase activity normalized to lacZ activity and to a control, mCAR: 0.31
  Luc. act., normalized to lacZ: 11.8
  Normalized Luc. act., normalized to control: 0.3

B5: ERR3: Estrogen Related Receptor γ (NR3B3, ERRg), cDNA driver (protein, UniProt P62508 1-458, looked up)
Estrogen-related receptor …: MDSVELCLPESFSLHYEEELLCRMSNKDRHIDSSCSSFIKTEPSSPASLTDSVNHHSPGGSSDASGSYSSTMNGHQNGLDSPPLYPSAPILGGSGPVRKLYDDCSSTIVEDPQTKCEYMLNSMPKRLCLVCGDIASGYHYGVASCEACKAFFKRTIQGNIEYSCPATNECEITKRRRKSCQACRFMKCLKVGMLKEGVRLDRVRGGRQKYKRRIDAENSPYLNPQLVQPAKKPYNKIVSHLLVAEPEKIYAMPDPTVPDSDIKALTTLCDLADRELVVIIGWAKHIPGFSTLSLADQMSLLQSAWMEILILGVVYRSLSFEDELVYADDYIMDEDQSKLAGLLDLNNAILQLVKKYKSMKLEKEEFVTLKAIALANSDSMHIEDVEAVQKLQDVLHEALQDYEAGQHMEDPRRAGKMLMTLPLLRQTSTKAVQHFYNIKLEGKVPMHKLFLEMLEAKV
hCAR promoter
  luciferase activity normalized to lacZ activity and to a control, hCAR: 1.34
  Luc. act., normalized to lacZ: 42.2
  Normalized Luc. act., normalized to control: 1.3
mGhrelin promoter
  Luc. act., normalized to lacZ: 145.9
  Normalized Luc. act., normalized to control: 2.8
  Results of assays of transcription factor (+/- ligand) with mGhrelin: 2.79
mDio1 promoter
  Luc. act., normalized to lacZ: 5.9
  Normalized Luc. act., normalized to control: 1.3
  mDio1 promoter reporter activity: 1.32
mNPY promoter
  Results of assays of transcription factor (+/- ligand) with mNPY: 1.11
  Luc. act., normalized to lacZ: 93.1
  Normalized Luc. act., normalized to control: 1.1
mCAR promoter
  luciferase activity normalized to lacZ activity and to a control, mCAR: 2.87
  Luc. act., normalized to lacZ: 109.5
  Normalized Luc. act., normalized to control: 2.9
